Measured values published in patent publication US20100173352A1.

Molecular target: human CD47/IAP receptor on HUCB-EPC (human) (UniProt Q08722)
Assay: cell-based or functional assay

B1: mouse monoclonal anti-human CD47 IgG1 (clone B6H12) (antibody, from another filing, V domains shown)
VH: EVQLVESGGDLVKPGGSLKLSCAASGFTFSGYGMSWVRQTPDKRLEWVATITSGGTYTYYPDSVKGRFTISRDNAKNTLYLQIDSLKSEDTAIYFCARSLAGNAMDYWGQGTSVTVSS
VL: DIVMTQSPATLSVTPGDRVSLSCRASQTISDYLHWYQQKSHESPRLLIKFASQSISGIPSRFSGSGSGSDFTLSINSVEPEDVGVYYCQNGHGFPRTFGGGTKLEIK
Question: For B1, which HUCB-EPC adhesion onto gelatin-vitronectin after pre-treatment with 40 µg/ml, compared with BSA is on record?
Answer: Its HUCB-EPC adhesion onto gelatin-vitronectin after pre-treatment with 40 µg/ml, compared with BSA is 14.6%.

Question: What about the HUCB-EPC adhesion onto gelatin-vitronectin after pre-treatment with 40 µg/ml, compared with control mouse IgG1 of the same binder?
Answer: Its HUCB-EPC adhesion onto gelatin-vitronectin after pre-treatment with 40 µg/ml, compared with control mouse IgG1 is 16.6%.
